In the supplement of paper PMC7125110:
± gives the standard error. This sample holds only a part of the variants without activity.

B1: glmS ribozyme (parent)
chain: AUAAAAGCGCCAGAACUACAGAAAUGUAGUUGACGAGGAGGAGGUUUAUCGAAUUUUCGGCGGAUGCCUCCAAA

How the values were obtained:
Settings in all cases: with glucosamine-6-phosphate
glucosamine-6-phosphate [1] = variants of: B1; assay: self-cleavage kobs at 40 uM GlcN6P; higher = faster cleavage; RNA array
Procedure, shortened: (§1)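 Tiles bearing barcoded ribozyme variants, transcribed in situ by E. coli RNA polymerase on sequenced MiSeq chips, were imaged over ~14 h at 37 °C using a hybridised Cy3 probe. Glucosamine-6-phosphate was supplied at 40 μM to 10 mM in HEPES/KCl/Mg(OAc)2 buffer. kobs came from one- or two-exponential decay fits to normalised per-tile medians, and weighted Michaelis–Menten fits then provided kcat and KM.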

glucosamine-6-phosphate [2] = variants of: B1; assay: self-cleavage kobs at 160 uM GlcN6P; higher = faster cleavage; RNA array
Procedure, shortened: as §1

glucosamine-6-phosphate [3] = variants of: B1; assay: self-cleavage kobs at 640 uM GlcN6P; higher = faster cleavage; RNA array
Procedure, shortened: as §1

glucosamine-6-phosphate [4] = variants of: B1; assay: self-cleavage kobs at 2500 uM GlcN6P; higher = faster cleavage; RNA array
Procedure, shortened: as §1

glucosamine-6-phosphate [5] = variants of: B1; assay: self-cleavage kobs at 10000 uM GlcN6P; higher = faster cleavage; RNA array
Procedure, shortened: as §1

Variant | self-cleavage kobs at 40 uM GlcN6P (glucosamine-6-phosphate [1]) | self-cleavage kobs at 160 uM GlcN6P (glucosamine-6-phosphate [2]) | self-cleavage kobs at 640 uM GlcN6P (glucosamine-6-phosphate [3]) | self-cleavage kobs at 2500 uM GlcN6P (glucosamine-6-phosphate [4]) | self-cleavage kobs at 10000 uM GlcN6P (glucosamine-6-phosphate [5])
G32A A48C | < 1e-05 s⁻¹ | < 1e-05 s⁻¹ |  |  | 
G32U G62A | < 1e-05 s⁻¹ |  | < 1e-05 s⁻¹ | < 1e-05 s⁻¹ | < 1e-05 s⁻¹
A33C C50G C71U | 0.000772 ± 0.00027 s⁻¹ |  | 0.000204 ± 5.8e-05 s⁻¹ | 0.000589 ± 0.00017 s⁻¹ | 5.96e-05 ± 2.9e-05 s⁻¹
C34G U45A | < 1e-05 s⁻¹ | < 1e-05 s⁻¹ | < 1e-05 s⁻¹ | < 1e-05 s⁻¹ | < 1e-05 s⁻¹
C34G A48G C68G | 8.52e-05 ± 3.4e-05 s⁻¹ |  |  |  | 
A33C A42U C61A | < 1e-05 s⁻¹ |  |  |  | 
A33U C34U | < 1e-05 s⁻¹ | < 1e-05 s⁻¹ | < 1e-05 s⁻¹ |  | < 1e-05 s⁻¹
C34G G35C | < 1e-05 s⁻¹ |  |  |  | 
G32A G44C C71G | < 1e-05 s⁻¹ |  |  |  | < 1e-05 s⁻¹
U31C G44A C71U | < 1e-05 s⁻¹ | < 1e-05 s⁻¹ | < 1e-05 s⁻¹ |  | 
C34A C71A | < 1e-05 s⁻¹ |  | < 1e-05 s⁻¹ |  | < 1e-05 s⁻¹
C34G U65C | < 1e-05 s⁻¹ |  | < 1e-05 s⁻¹ |  | < 1e-05 s⁻¹
A33U C67U C70G | < 1e-05 s⁻¹ |  |  |  | 
U31C G60C | < 1e-05 s⁻¹ |  |  |  | < 1e-05 s⁻¹
U31C G60A | < 1e-05 s⁻¹ |  | < 1e-05 s⁻¹ |  | < 1e-05 s⁻¹
A33U G37C U45C A64C | < 1e-05 s⁻¹ |  |  |  | < 1e-05 s⁻¹
C34U C58G C68U | 0.000265 ± 9.2e-05 s⁻¹ |  |  |  | 0.000425 ± 0.00014 s⁻¹
G32U A52C U55G C61U | < 1e-05 s⁻¹ |  |  |  | < 1e-05 s⁻¹
G32C A64C | < 1e-05 s⁻¹ | < 1e-05 s⁻¹ |  | < 1e-05 s⁻¹ | < 1e-05 s⁻¹
A33G G51A | < 1e-05 s⁻¹ | < 1e-05 s⁻¹ |  | < 1e-05 s⁻¹ | < 1e-05 s⁻¹
U31G G43U U54A | < 1e-05 s⁻¹ |  |  |  | 
C34A A48C | < 1e-05 s⁻¹ |  |  | < 1e-05 s⁻¹ | < 1e-05 s⁻¹
U31C G38C A39C | < 1e-05 s⁻¹ |  |  | < 1e-05 s⁻¹ | 
C34A A39G A48U C68A | < 1e-05 s⁻¹ | < 1e-05 s⁻¹ |  | < 1e-05 s⁻¹ | < 1e-05 s⁻¹

Variant | self-cleavage kobs at 40 uM GlcN6P (glucosamine-6-phosphate [1]) | self-cleavage kobs at 160 uM GlcN6P (glucosamine-6-phosphate [2]) | self-cleavage kobs at 640 uM GlcN6P (glucosamine-6-phosphate [3]) | self-cleavage kobs at 2500 uM GlcN6P (glucosamine-6-phosphate [4]) | self-cleavage kobs at 10000 uM GlcN6P (glucosamine-6-phosphate [5])
A33C G40A C67G | < 1e-05 s⁻¹ |  |  |  | 
G32U G35A U57C | < 1e-05 s⁻¹ | < 1e-05 s⁻¹ |  |  | 
C34G G51C | < 1e-05 s⁻¹ |  | < 1e-05 s⁻¹ |  | < 1e-05 s⁻¹
C34U A53G | < 1e-05 s⁻¹ |  |  |  | < 1e-05 s⁻¹
A33C A42C | < 1e-05 s⁻¹ | < 1e-05 s⁻¹ | < 1e-05 s⁻¹ |  | < 1e-05 s⁻¹
A33G U55C G59A | < 1e-05 s⁻¹ |  | < 1e-05 s⁻¹ | < 1e-05 s⁻¹ | < 1e-05 s⁻¹
A33U C67G | < 1e-05 s⁻¹ | < 1e-05 s⁻¹ | < 1e-05 s⁻¹ |  | 
A33G A52C U55G | < 1e-05 s⁻¹ |  |  |  | 
A33U A64C | < 1e-05 s⁻¹ | < 1e-05 s⁻¹ | < 1e-05 s⁻¹ |  | < 1e-05 s⁻¹
C34G G43C | < 1e-05 s⁻¹ | < 1e-05 s⁻¹ | < 1e-05 s⁻¹ | < 1e-05 s⁻¹ | 
U31G C50G C67U | 8.62e-05 ± 1.8e-05 s⁻¹ |  |  |  | 0.000109 ± 2.3e-05 s⁻¹
A33C A36G G62U G66A | < 1e-05 s⁻¹ |  | < 1e-05 s⁻¹ | < 1e-05 s⁻¹ | 
A33G G40C U56G | < 1e-05 s⁻¹ |  |  |  | 
A33U G37U C50G U69A | 8.34e-05 ± 2.3e-05 s⁻¹ |  |  |  | 0.000105 ± 2.5e-05 s⁻¹
G32A A33C C68G C71G | 5.72e-05 ± 1.6e-05 s⁻¹ |  |  |  | 8.64e-05 ± 2e-05 s⁻¹
C34G C58U | < 1e-05 s⁻¹ |  | < 1e-05 s⁻¹ | < 1e-05 s⁻¹ | < 1e-05 s⁻¹
C34G C58G | < 1e-05 s⁻¹ | < 1e-05 s⁻¹ | < 1e-05 s⁻¹ |  | < 1e-05 s⁻¹
U31A U45G U54G C58A C61A | < 1e-05 s⁻¹ | < 1e-05 s⁻¹ |  |  | < 1e-05 s⁻¹
C34G C50A | < 1e-05 s⁻¹ |  | < 1e-05 s⁻¹ |  | 
A33C G43A U47G | < 1e-05 s⁻¹ | < 1e-05 s⁻¹ | < 1e-05 s⁻¹ | < 1e-05 s⁻¹ | 
C34U C61A C67U | 0.00014 ± 3.8e-05 s⁻¹ |  | 0.000388 ± 0.00011 s⁻¹ | 5.38e-05 ± 2.6e-05 s⁻¹ | 0.000236 ± 6.1e-05 s⁻¹
A33G C50U C67A | < 1e-05 s⁻¹ |  |  |  | 
U31C U69C | 4.67e-05 ± 1.5e-05 s⁻¹ | 5.62e-05 ± 1.5e-05 s⁻¹ | 0.000232 ± 6.2e-05 s⁻¹ | 0.00045 ± 8.2e-05 s⁻¹ | 0.0013 ± 0.00035 s⁻¹
U31G A33G U56C | < 1e-05 s⁻¹ | < 1e-05 s⁻¹ | < 1e-05 s⁻¹ | < 1e-05 s⁻¹ | 
